In publication PMC5512451:

Biological target: N90-VRC38.01 IgG (human)
Experiment: SPR

Substance: BG505.DS.T332N.SOSIP.664 gp140 trimer (complex)
- fold stronger binding of the IgG than of the Fab: > 7 fold
